# Measured values: the DeepSol protein solubility set
# Test: soluble on expression in E. coli; label from the status in PepcDB or PDB records
row,Sequence,soluble on expression in E. coli
1,MSLTEILIVEDDDIIATLIERFLLQREYVVCAKVATGEDALYKAAEHLPDLVLMDINLAGKIDGITATKFITAIFHIPVIFLSGQDDETTLERATMAEPASFIIKPFNAKDLYSNIEIALHNDRILKRSKDYKGGKIRRIARAALSELDAYFILDKRGRIVFINPYGEHLLNVHRNDIILKPIGKYLTFYDTRQNTVFTDTFQDVIRESLVLGVRQHIAVKMSDNSFRHVVIQSTSIRDSENETIGMIVRMHMKTKSEEGHHHHHH,soluble
2,MSLTEISRFDAYPPTLTVNPIVPADAPATEHLVWTIAQAAEERKAGDLVILKVTDVSYLADYFVICTGFSRTQVRAIADNIEKQVELVHGQLPTHTEGNSESIWVLQDFGDVLVHTFMPEEREFYKLEAFWGHAQEQTLADIATAIGVAYNAPTSPEGHHHHHH,soluble
3,MSLTIAHDIDLSAVLAERLTTTHPDVLRELLAAFIHALMGAEADAVCGAGYGQRSSERTNSRNGYRHREFDTRAGTLDLAIPKLRQGSYFPDWLLERRKRAERALTTVVATCYLLGVSTRRMDKLVETLGITSLSKSQVSVMAKELDAAVEAFRTRPLDAGPYTFMAADALVLKVREAGRVVNVHALIATGVNAEGYREILGIDVTTTEDGAGWLTFLRSLTARGLSGVRLVTSDAHAGLVAAIGATLPGASWQRCRTHYATNLMAITPKSSWPWVRTLLHSVFDQPDAGSVAAQYDRIIDALADKLPKVADHLEDTRADLLAFTAFPKQIWRQIWSNNPQVICSPRDGVFDVRHEVLRSQVLRAGHAYLQLSRRQEPAEGRCRLHELSRRSRCVSRGEGHHHHHH,not soluble
4,MSLTKKELRKEQTNRFIESTIITTDLLLSSYLYDSTKMEEFLSFIANLDNKYSFINMYLVRTQFPGASIVKSYSSWKKENIQVRKNEKGISIFRPKVIEYVVYNNTKVTKDKWTNEIKELVKNNELEVYTYTKGFTLAKVFDISQTTLPKAQYPKQYFSYFIKEDNENINPNTKLLSLLCNFIAKHNIGITYATMGLSTSEQRFYDKNSHGIKHWIRLNDKNSITQNIYSLVKEYAHTLLGHDISAINNIENRYQAQLVAYAICKSFRLKGIELSSFDAFRSWVNTSTKEMRKKWINSVIFASKQFANDFNYFLDEIEINVDKANLRETASINELMGREGHHHHHH,soluble
5,MSLTKLYYEDQYIKEFKGEIIEVKEIDGKFHVLLDQTAFFPGGGGQMGDLGLIDGIKVLDVYEEEGKVYHVLEKEPKKLKNLQCELDWERRFDGMQQHLGQHLLSGCFYDLFGANTCGFHLGKEISTVDIVGFLDEKTIREAEKEANRLIFENLEVKSYAPSKKELKKVKTRRALPKTDEEIRIVEIVGLDLNACCGVHPRNTRDLQVIKIRRWEKHKNATRIEYVAGNRAVSEGHHHHHH,soluble
6,MSLTKPTIALTELVEKGADADLLKQMIQFVAQRMMEFDVEGLCGAGFDVKSPDRTNSRNGYRDRLWQTRAGDVDLKIPKLRQGNYFPGFLEPRRTAEKAMAAVIQEAYIQGVSTRSVDELVKAMGMTGISKSQVSRLAGEIDERVHAFLDRPLEGDWPYLWIDATYVKVREAGRIVSVVVIIAVAVNTDGGREVLGMRVGPSEAEPFWTDFLRSLMRRGLRGVKLVISDAHEGLKAAASKVFNATWQRCRVHFMRNAMAHVGKGQRTMVAALLRTVFAQDSRAECHQQWRLVADQLREKYPKIATLMDGCEDEVLAHMAFPKAHRQQLHSTNPLERLNAEIKRRTDVVGIFPNDPAITRLVGAMLLEQNDEWCLQRRYMQLEAFEAVSDNPQAKLSAVINEGHHHHHH,soluble
7,MSLTKSGLAHAAGVSTSVIDGLVKQGVFETVFLPAPPVVAEPDPDYVEPRLEGPQKQAASEIIEDVRKGGFHVSLIDGVTGSGKTEVYFEAVAETLRQGKQVLILLPEIALTAAFLERFQDRFGAKPAEWHSDLSPRMREKVWRQAVTGEIKVVAGARSALFLPFDNLGLIIVDEEHDPAYKQEDRVFYNARDMAVVRARIAEFPVVLVSATPSVESQVNGSSGRYNTIHLHTRFGDAAMPDLHLVDMRRHPPERGGFLSPVLLRGIGKTIEKGEQSLLFLNRRGYAPLTLCRVCGHRFQCPQCSSWLVEHRFRNQLQCHQCGHNEPTPDHCPECGTFDHLVACGPGVERIAEEVEKHFPEARTIVLSSDLMGVKRLRLELEAIVKGEADIVIGTQLVAKGHNFPLMTLVGIVDADLGLANGDPRAAERTFQLLSQVTGRAGRTGLKSHGLLQTYQPQHPVMQAIVSGDASAFYEREIVEREKAVLPPFGRLASIIVSADTRAEAETHARGLRAAAPQVTGIMLLGPAEAPLALIRGRHRFRLLVHGRRNSDMQSFLRTLLASGPKERGSVHVQLDIDPQSFLEGHHHHHH,not soluble
8,MSLTLPDFRLIRLLPLASLVLTACTLPGHKGPGKSPDSPQWRQHQQEVRHLNQYQTRGAFAYISDDQKVYARFFWQQTGQDRYRLLLTNPLGSTELELNAQPGNVQLVDNKGQRYTADDAEEMIGKLTGMPIPLNSLRQWILGLPGDATDYKLDDQYRLSEVNYRQDGKNWKVVYGGYDSKTQPAMPANMELSDGSQRIKLKMDNWIVKEGGSHHHHHH,soluble
9,MSLTLTLKETLLASPGVLFLDDITIEKVESEKNLMILLPGLEYLVTRDLLRTKFPEYDFTGPENVRITVEGYSSLKNAVFEEIGKKAEAKDFEAFVVKTFGTLPEKFEPQTIRVTKISKNLFSVFLRFPDTYVTLNMLLRKERNVVVLKRNINVGDVIKEEDVRLEKRNVFEIYGEPFFDVSEVVGKISRRYLKEGTVLTADMVKDPPDVVKGQVVPAYVDMGSIKVTTFVEVLENGYLGETVRAMNVESRKYVFGRVERGPVLRILEVVEGHHHHHH,soluble
10,MSLTNHEQVLTDYLAAFIEELVQAGVKEAIISPGSRSTPLALMMAEHPILKIYVDVDERSAGFFALGLAKASKRPVVLLCTSGTAAANYFPAVAEANLSQIPLIVLTADRPHELRNVGAPQAMDQLHLYGSHVKDFTDMALPENSEEMLRYAKWHGSRAVDIAMKTPRGPVHLNFPLREPLVPILEPSPFTATGKKHHHVHIYYTHEVLDDSSIQKMVTECTGKKGVFVVGPIDKKELEQPMVDLAKKLGWPILADPLSGLRSYGALDEVVIDQYDAFLKEAEIIDKLTPEVVIRFGSMPVSKPLKNWLEQLSDIRFYVVDPGAAWKDPIKAVTDMIHCDERFLLDIMQQNMPDDAKDAAWLNGWTSYNKVAREIVLAEMANTTILEEGKIVAELRRLLPDKAGLFIGNSMPIRDVDTYFSQIDKKIKMLANRGANGIDGVVSSALGASVVFQPMFLLIGDLSFYHDMNGLLMAKKYKMNLTIVIVNNDGGGIFSFLPQANEPKYFESLFGTSTELDFRFAAAFYDADYHEAKSVDELEEAIDKASYHKGLDIIEVKTNRHENKANHQALWVKIADALKALDEGHHHHHH,soluble
11,MSLTNKHPSLFSPFMLTEKIKLRNRIVMAPMTTWSANPDGTISEQELEFYKRRSQNVGLVITGCTYVTPSGIGFTHEFAAYDDRFINSLEKLAAAAKSGGAPAILQIFHAGNKAIPELVPNNDVISASASSVKSGDFMKRVVQSREMTENEIQETIRAFGDVTKRAIKAGFDGIELHGAHGFLLQNFFSPLFNQRNDRWGGDLEGRMRFPLAVLQEVKNVVYEYATKPFAIGYRISPEESATGGLRIEDTYKLLDRLISSGISYIHTSLVSINDSYPVESPNGPRTIELILNHIAGRVPVIAAGKIRTPSQAQEAISTGLPLVAIGKGLVINPEWVTLAESGRGHEIQTTLNPQLVPELTIPDKLWDQIQASKGEGHHHHHH,soluble
12,MSLTPYEPFRHLDQMRREFDRFFPDFPIDLPNRHLTLSPKMDVHETDHEVILECDIPGLESKEDLQIDVEPRSVRIEGRIKRSKEVHDERFYRREREIGHFRRVVPLPAEVAEDDIRAAYRNGVLEVRMRKRLDDRRRTIDVEFHLEHHHHHH,soluble
13,MSLTRIVLPGGAGLVGQNLVARLKARGYTNLVVLDKHEANLDVLRSVHPDITAVFADLAEPGDWARHFEGADVVVMLQAQIGAPTREPFVRNNIDSTRCVLEVIKQHAIPYTVHISSSVVKSVGEDWYTETKREQEAIVLASGIGCVVLRPTLMFGWFDRKHLGWLSRFMQRVPVFPIPGSGRYMRQPLYVGDFCNVIISCIDSRIQGQTFDITGLERIDYIDIIRQIKRVTRARCAIVRIPYGLFHILLKVYALFSKNPPFTADQLKALTAGDEFDVIDWERIFAIRATPFAQAMEETFNDPTYSHIALEEGHHHHHH,soluble
14,MSLTTAHNIDLPTVLAERLTTAHPDVLRELLATFIHTLMGAEADALCGAGYGERSTERTNSRNGYRHRQFDTRAGSLDLAIPKLRHGSYFPDWLLERRKRAERALTTVVATCYLLGVSTRRMDKLVETLGITSLSKSQVSVMAKELDAAVEAFRTRPLDAGPYTFVAADALVLKVREGGRVVNVHALIAVGVNAEGHREILGIDVSTAEDGAGWLTFWRSLTARGLSGVKLVTSDAHAGLVAAIGATLPGAAWQRCRTHYTTNLMAVTPKSSWPWVRTLLHSVFDQPDAESVAAQYDRIIEALADKLPKVADHLEEARADLLAFTAFPKQIWRQIWSNNPLSVNRPSGDTVQAAAEGHHHHHH,soluble
15,MSLTTALAPGAADALLFDLGRVVIDYDLRRTLKAWAVELGSDPHALMAKLAQNDTFHRYETGHVTDAEFFAAVRTALGLTLTDAQLREGWNAIFIGEMPGIAPLLDRAAKQLPLYALSNTNDSHIAHFSEHYAELLVHFRELFLSSRIGMRKPNGETYDFVVKAIGIAPQRIVFFDDLAENVEAARERGLYAVQVHSSDDVARTLDQLGLEGHHHHHH,soluble
16,MSLTTIRVFDTTLRDGEQMPGVSLPLEYKIRIAKQLDKLGVDVIEAGFPSATKGEFESVKEISSLSLNAEICGLARIVKEDIDAAINANVDMVHIFVPTSRIQIEHTVKMSKEEIIEKSVECVEYIKSHGVKCMFSAMDATRTEVEYLKQIFKAVENAKVDIVNVPDTVGVATPFKFYELIKQLREHLKVPIDVHCHNDFGLAVANTYAAVMAGANEVQVTVNGIGERAGNADLAQVVMILHAIEGIKTNIKTEHLFETSKLVERLTGVKMPPNHPIVGENAFSHESGIHAHGVLKEYSEGHHHHHH,soluble
17,MSLTTLVNLTPTKEQRKYQEDELIAFLDLQMNTFTANSENNDEAPSLLKKETSFNTDIWIENLFKFGFKKVILTAKLNNGICLWQSNCSKVNINTFSLENNYDDLVKKVSKSCKKFGLKFGIHLTLKDYLTLNLTPEEYDNYYTSQLKELMTNYSQISEVIMDMTSLDEYYDSLDFERYFKVVKEINPKCMISSPIGPDVRWTYYSDIESSKNYFYSSINLDLLKEDFNNEEIRKGNIYGDTWIVGESIYSLSDCLNHNKDSLSNLKHVYNNSLGRNTNLVLVLSPNTDGLLNHNELSLLSDFSKYIKETFSNNLIKGSSILATNSSSSDSYNLIDDYKKSYWIANENAVNPYIEIDFKTITEFNILEIREWIAEGQNVEEFKVYAYNNGWFELYNGTSIGYRHIAKLNNIKTDKIKISFTKYKNPPMINHIGAYLGEGHHHHHH,soluble
18,MSLTTMVPTVMNTPTRIEAGRQKFLIFDAPSQENLPAYIEEMRAYEVTDLVRTCERTYDDKTVLASGIRPHELIFPDGEAPPDDVIDEWLTLCNAVSQQRGAIAIHCVAGLGRAPVLVAIALIEKGMDPMDAIMFIRERRKGAINRRQLQFLKGYKRRSNYKEGHHHHHH,soluble
